Publication PMC10557571 (bioRxiv, 2023)

Molecular target: the molecule itself
Assay: SDS-PAGE under non-reducing and reducing conditions with anti-Flag western blot

B1: Flag-tagged mature Activin E from Construct II (ligand, human, UniProt P58166 237-350, looked up)
chain: TPTCEPATPLCCRRDHYVDFQELGWRDWILQPEGYQLNYCSGQCPPHLAGSPGIAASFHSAVFSLLKANNPWPASTSCCVPTARRPLSLLYLDHNGNVVKTDVPDMVVEACGCS
With B1 the “stoichiometry N” value was 2.

B2: Unprocessed Activin E precursor from Construct I (natural protein, human, UniProt P58166 20-350, looked up)
chain: QGTGSVCPSCGGSKLAPQAERALVLELAKQQILDGLHLTSRPRITHPPPQAALTRALRRLQPGSVAPGNGEEVISFATVTDSTSAYSSLLTFHLSTPRSHHLYHARLWLHVLPTLPGTLCLRIFRWGPRRRRQGSRTLLAEHHITNLGWHTLTLPSSGLRGEKSGVLKLQLDCRPLEGNSTVTGQPRRLLDTAGHQQPFLELKIRANEPGAGRRRRRTPTCEPATPLCCRRDHYVDFQELGWRDWILQPEGYQLNYCSGQCPPHLAGSPGIAASFHSAVFSLLKANNPWPASTSCCVPTARRPLSLLYLDHNGNVVKTDVPDMVVEACGCS
For B2, the “stoichiometry N” value was 2.
